For orientation: Kd means the equilibrium constant for the complex coming apart.

The record followed here is patent US20220073922, “Aptamers and use thereof” (Aptitude Medical Systems, Inc., published 2022).

Data set [1] addresses T1, VEGF-165 (VEGFA isoform 165) (Homo sapiens).
T1 chain: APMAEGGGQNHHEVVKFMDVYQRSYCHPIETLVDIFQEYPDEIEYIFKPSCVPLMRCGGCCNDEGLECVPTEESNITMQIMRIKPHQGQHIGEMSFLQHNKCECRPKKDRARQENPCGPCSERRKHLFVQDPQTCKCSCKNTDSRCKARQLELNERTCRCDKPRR
Briefly: flow; PBSMCT, 37 C. Particulars: chain copies: 2 (inferred), label: biotin. On the procedure:
(§1) Truncated and modified variants of the anti-VEGF aptamers of the present disclosure were prepared by LGC Biosearch Technologies (Novato, Calif.), and their binding affinity to corresponding targets were examined. Briefly, the equilibrium binding constants of the enriched libraries were measured using magnetic bead partitioning. Biotinylated anti-VEGF aptamers were conjugated to the 1 μm streptavidin-coated MyOne Streptavidin Cl magnetic beads (Thermo Fisher Scientific, 65002). Binding assays were performed by incubating fixed concentration of anti-VEGF aptamer (0.01 nM) and target protein at concentrations ranging from 10⁻¹² to 10⁻⁸ M in PBSMCT buffer (DPBS, pH 7.2 with 2.5 mM MgCl₂, 1 mM CaCl₂) and 0.01% TWEEN-20) at 37° C. for 90 minutes. Bound target protein was partitioned by magnetic separation and subsequently labeled via fluorescent anti-VEGF or anti-His-tag antibody. The fraction of anti-VEGF aptamer bound was quantified by flow cytometry (BD Accuri C6 Plus). Raw binding data were corrected for nonspecific background binding of target protein to empty magnetic beads. The fraction of bound anti-VEGF aptamer was plotted as a function of protein concentration and a non-linear curve-fitting algorithm (Langmuir one-site binding model) was used to extract equilibrium binding constants (KD values) from the data (FIG. 1).

In data set [2] the target is T2, Angiopoietin-2 (Ang2) (Homo sapiens, UniProt O15123 O15123:19-496). Briefly: flow; PBSMCT, 37 C. The following applies: tags: His tag, R&D Systems 623-AN; label: biotin. The protocol: Various mutations and truncated variants of a representative anti-Ang2 aptamer (AMS0525) were obtained and their binding affinity to Ang2 were measured using magnetic bead partitioning. Biotinylated anti-Ang2 aptamers were conjugated to the 1 μm streptavidin-coated MyOne Streptavidin Cl magnetic beads (Thermo Fisher Scientific, 65002). Binding assays were performed by incubating fixed concentration of aptamer (0.01 nM) and Ang2 protein at concentrations ranging from 10⁻¹² to 10⁻⁸ M in PBSMCT buffer (DPBS, pH 7.2 with 2.5 mM MgCl₂, 1 mM CaCl₂) and 0.01% TWEEN-20) at 37° C. for 90 minutes. Bound target protein was partitioned by magnetic separation and subsequently labeled via fluorescent anti-His-tag antibody. The fraction of anti-Ang2 aptamer bound was quantified by flow cytometry (BD Accuri C6 Plus). Raw binding data were corrected for nonspecific background binding of target protein to empty magnetic beads. The fraction of bound anti-Ang2 aptamer was plotted as a function of protein concentration and a non-linear curve-fitting algorithm (Langmuir one-site binding model) was used to extract equilibrium binding constants (KD values) from the data (FIG. 4A).

In data set [3] the target is T3, VEGF-121 (VEGFA isoform 121) (Homo sapiens, UniProt P15692 SEQ:1-121). Put plainly: flow; PBSMCT, 37 C. The following applies: chain copies: 2 (inferred), label: biotin. The protocol: as §1
The target of data set [4] is T2, Angiopoietin-2 (Ang2). Briefly: flow. The following applies: tags: His tag, R&D Systems 623-AN; label: biotin.
Data set [5] concerns the target T3, VEGF-121 (VEGFA isoform 121). Put plainly: flow. The following applies: chain copies: 2 (inferred); label: biotin.

T2 sequence (O15123 19-496, one chain of several): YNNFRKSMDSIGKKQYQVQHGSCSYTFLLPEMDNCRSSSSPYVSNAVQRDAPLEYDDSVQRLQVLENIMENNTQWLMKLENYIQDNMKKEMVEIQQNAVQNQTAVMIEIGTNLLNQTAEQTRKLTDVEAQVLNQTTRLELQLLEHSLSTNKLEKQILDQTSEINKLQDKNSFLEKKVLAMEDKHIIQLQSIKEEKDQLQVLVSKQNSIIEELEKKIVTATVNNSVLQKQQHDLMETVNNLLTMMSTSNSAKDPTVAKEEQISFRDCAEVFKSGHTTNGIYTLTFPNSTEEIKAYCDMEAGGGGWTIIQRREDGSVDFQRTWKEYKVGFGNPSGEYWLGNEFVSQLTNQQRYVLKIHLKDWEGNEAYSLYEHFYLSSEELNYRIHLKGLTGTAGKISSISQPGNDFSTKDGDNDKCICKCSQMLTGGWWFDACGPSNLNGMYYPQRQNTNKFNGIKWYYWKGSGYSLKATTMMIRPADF

As for AUUCUGUCUUUUUAAAUAAUGUCCCCUUGUUGCACAUUACAGAA (ssRNA, 2'-F all positions) [AMS0403], the Kd in data set [1] is 0.111 nM.
Consider CCGAUAAGCCAACAAACGUACAUUCUCUGUUAGUAUUCGG (ssRNA, 2'-F all positions) [AMS0525.4], for which, in data set [2], the Kd is over 1 nM.
With GGAAAACAGUAUAAUGUCUUGUUUCUUCUC (ssRNA, 2'-F all positions) [AMS0410], the Kd in data set [3] was 11.8 nM.
As for CCAACCGUGUAUCUGUCUUGCUUGCGGCGGUUUUGUUGUG (ssRNA, 2'-F all positions) [AMS0416], the results for the Kd in data set [3] and in data set [1] were 0.654 nM and 29.4 nM, respectively.
For the molecule UCCGCUUGCGGAGCAGCUUCUGUAUUCUGC (ssRNA, 2'-F all positions) [AMS0407], the dissociation constant Kd in data set [3] is 0.761 nM.
As to CGCUAGAUGGCCUAACACGUAUAUUUGUGGAGAUGGCACUAGCG (ssRNA, 2'-F all positions) [AMS0421.5], the equilibrium dissociation constant (Kd) in data set [3] was 0.511 nM; in data set [1], 0.879 nM.
For CGUGGAGAUGCAUUCUGUCGAGGAUUGGCUAACACG (ssRNA, 2'-F all positions) [AMS0425.1], in that order: 0.294 nM and 0.356 nM.
On the same counts, the results for CGUGGAGAUGCGUUCCGUCGAGGAUCGGCUAACACG (ssRNA, 2'-F all positions) [AMS0425.8] are 0.287 nM and 0.876 nM.
Turning to GCCUUAGAUAAGCCAACAAACGUACAUUCUCUGUUAGUAUUUUCAGGC (ssRNA, 2'-F all positions) [AMS0525.3], the equilibrium dissociation constant (Kd) in data set [2] turned out to be 0.033 nM.
The same measure, in the same setting: under CGCAUAGAUAAGCCAACAAACGUACAUUCUCUGUUAGUAUUUUCUGCG (ssRNA, 2'-OMe at 1-4 and 45-48, 2'-F elsewhere) [AMS0525.5] stands 0.043 nM; under CGCAUAGAUAAGCCAACAAACGUACAUUCUCUGUUAGUAUUUUCUGCG (ssRNA, LNA at 1-4 and 45-48, 2'-F elsewhere) [AMS0525.6], 0.029 nM.
With UCCGCUUGCGGAGCAUCUUCUGUAUUCUGC (ssRNA, 2'-F all positions) [AMS0408], the Kd in data set [3] came to 10.1 nM.
CGCUAGAUGGCUAACACUAUUGUGGAGAUGCACUAGCG (ssRNA, 2'-OMe at 1-3 and 36-38, 2'-F elsewhere) [AMS0427.1]: the figures for the equilibrium dissociation constant (Kd) in data set [3] and in data set [1] were 0.047 nM and 0.092 nM, respectively.
CGCUAGAUGGCUAACACUAUUGUGGAGAUGCACUAGCG (ssRNA, LNA at 1-3 and 36-38, 2'-F elsewhere) [AMS0427.2]: the Kd in data set [3] is 0.043 nM; in data set [1], 0.087 nM.
Consider UCCGCUUGCGGAGCACCUUCUGUAUUCUGC (ssRNA, 2'-F all positions) [AMS0409], for which the equilibrium dissociation constant (Kd) in data set [3] amounted to 14.2 nM.

B1: AMS0525 (ssRNA)
RNA: GCAUAGAUAAGCCAACAAACGUACAUUCUCUGUUAGUAUUUUCUGCACACCGUCGCUUAGU
modifications: 2'-F all positions
Take B1: the dissociation constant Kd in data set [2] amounted to 0.404 nM.
Turning to GCUCUUCGGUGUUAACUACCAAUCGUUGAUCGUUUUGCAAAAAAUUCC (ssRNA, 2'-F all positions) [AMS0406], the Kd in data set [1] amounted to 0.324 nM.
Same read-out and setting: in the case of GCUCUUCAAUGUUAACUACCAAUCGUUGAUCGUUUUGCAGAAAAUUCC (ssRNA, 2'-F all positions) [AMS0405] it was 1.01 nM; in that of GUGCUUCAUAUCCGUCCCCCCCUUGCUGCG (ssRNA, 2'-F all positions) [AMS0402], 0.098 nM.
As to GGUUUAUCUUAACUUUCUGCUACGAUACAGUUUUUGUUGA (ssRNA, 2'-F all positions) [AMS0411], the Kd in data set [3] came to 1.19 nM.
As to GCGGAUUGGCUAACACGGUCGACGUGGAGAUGCAUUCCGC (ssRNA, 2'-F all positions) [AMS0430], the Kd in data set [3] (stem-loop with bulges) was 0.104 nM; in data set [1] (stem-loop with bulges), 0.176 nM.
Turning to CCGGCCAUUGGUGGAGAUUAUCCUUUGAGUACGGUUAUUC (ssRNA, 2'-F all positions) [AMS0420], the dissociation constant Kd in data set [3] worked out at 0.082 nM; in data set [1] it was 0.87 nM.
For the molecule GCCGUGGAGAUGCGUUCCGUCGGGAUCGGCUAACACGGC (ssRNA, 2'-F all positions) [AMS0425.11], the Kd was found to be 0.124 nM in data set [3] and 0.349 nM in data set [1].
On the same counts, the results for AGUUAUUUGGUGGAGAGGAUCCAUUUAGCUUAUACAAUUC (ssRNA, 2'-F all positions) [AMS0419] are 0.095 nM and 0.99 nM.
Consider UCCUUAGAUGGCUAACACGUAUAUUUGUGGAGAUGCACUA (ssRNA, 2'-F all positions) [AMS0421.1], for which the Kd in data set [3] turned out to be 0.049 nM; in data set [1], 0.101 nM.
Consider GCCGUGGAGAUGCGUUCCGUCGAGGAUCGGCUAACACGGC (ssRNA, 2'-F all positions) [AMS0425.12], for which the Kd in data set [3] came to 0.126 nM; in data set [1] it was 0.678 nM.
On the same counts, the results for CGUGGAGAUGCAUUCUUCGAGAUUGGCUAACACG (ssRNA, 2'-F all positions) [AMS0425.3] are 0.245 nM and 0.981 nM.
CGUGGAGAUGCAUUCUGUCGAGGAUUGGCUAACACGCGAA (ssRNA, 2'-F all positions) [AMS0425]: the figures for the Kd in data set [3] and in data set [1] were 0.092 nM and 0.102 nM, respectively.
As to GCGUAGAUGGCUAACACUAUUGUGGAGAUGCACUACGC (ssRNA, 2'-F all positions) [AMS0421.3], the Kd came out at 0.051 nM in data set [3] and 0.098 nM in data set [1].
As for UUCUGUCUUUUUAGAUAAUGUCCCCUUGUUGCACAUUACA (ssRNA, 2'-F all positions) [AMS0404], the dissociation constant Kd in data set [1] stood at 0.419 nM.
Regarding CGCUAGUGGCGAACACGUAUAUUUGUGGCGAUGCACUAGCG (ssRNA, 2'-F all positions) [AMS0421.4], the Kd was determined as 0.471 nM in data set [3] and 1.92 nM in data set [1].
In the case of GCUCUUCAGCCCCGCGCCGGGUCCCACUCUGCGCCGCUC (ssRNA, 2'-F all positions) [AMS0401], in data set [1], the dissociation constant Kd turned out to be 0.087 nM.

B2: AMSB101 (ssRNA)
RNA: UUUCGCUAGAUGGCUAACACGUAUAUUUGUGGAGAUGCACUAGCGCGCAUAGAUAAGCCAACAAACGUACAUUCUCUGUUAGUAUUUUCUGCG
modifications: 2'-F all positions
For B2, the Kd in data set [4] worked out at 0.138 nM; in data set [5] it was 0.125 nM.

B3: AMSB102 (ssRNA)
RNA: CGUGGAGAUGCAUUCUGUCGAAGAUUGGCUAACACGCGCAUAGAUAAGCCAACAAACGUACAUUCUCUGUUAGUAUUUUCUGCG
modifications: 2'-F all positions
As to B3, the Kd was found to be 0.056 nM in data set [4] and 0.092 nM in data set [5].
For the molecule UUUCGCUAGAUGGCUAACACGUAUAUUUGUGGAGAUGCACUAGCG (ssRNA, 2'-F all positions) [AMS0421], the dissociation constant (Kd) in data set [3] (stem-loop with bulges) stood at 0.045 nM; in data set [1] (stem-loop with bulges) it was 0.096 nM.
For CAGGUGGAGAUGCAUUCUGUCGAAGAUUGGCUAACACCUG (ssRNA, 2'-F all positions) [AMS0425.10], the Kd was found to be 0.107 nM in data set [3] and 0.652 nM in data set [1].
